Data from patent US20060040855A1.

What was measured:
[1] = molecular target: human FSH receptor (human) (UniProt P23945)
rat LH receptor (rat) [2] = molecular target: rat LH receptor (rat) (UniProt P16235)
rat LH receptor (rat) [3] = molecular target: rat LH receptor (rat) (UniProt P16235); remark: listed apart in the source
rat LH receptor (rat) [4] = molecular target: rat LH receptor (rat) (UniProt P16235); remark: listed apart in the source

Substance | efficacy in cyclic AMP assays [1] | efficacy in cyclic AMP assays (rat LH receptor (rat) [2]) | Efficacy, cyclic AMP accumulation (rat LH receptor (rat) [3]) [%] | cyclic AMP accumulation (rat LH receptor (rat) [4])
dgα37-β33CFC (dg-αY37C/CFC101-114βI33C) (from UniProt P01215) (ligand) | < 4 % of hFSH | < 10 % of hCG |  | 
dghCG (hCG lacking the α-subunit loop 2 oligosaccharide) (from UniProt P01215) (ligand) |  |  | 42 | 40 % of hCG
dgα37-β33CF (dg-αY37C/CF101-109βI33C) (from UniProt P01215) (ligand) | < 4 % of hFSH | < 10 % of hCG |  | 
dgα37-β33 (dg-αY37C/hCGβI33C) (from UniProt P01215) (ligand) |  |  | 24 | 
